Kd, koff and kon data for one molecule are collected here from patent CN106831988A (SHENZHEN INST OF ADV TECH CAS, dated 2017).

The test has as its target T1, PD-1蛋白 (PD-1抗原) (human, UniProt Q15116 25-167, limits assumed).
T1 construct: The construct is not described; also called A蛋白
Briefly: SPR, Bio-Rad ProteOn XPR36, antibody coupled to channel L6, PD-1 antigen as analyte. In general terms: Surface plasmon resonance follows binding to a sensor surface in real time, without labels.

T1 sequence (Q15116 25-167 limits assumed): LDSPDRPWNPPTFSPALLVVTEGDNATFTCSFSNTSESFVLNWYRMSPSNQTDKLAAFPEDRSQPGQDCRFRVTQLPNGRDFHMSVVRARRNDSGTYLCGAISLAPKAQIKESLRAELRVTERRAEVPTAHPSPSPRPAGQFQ

B1: 抗人PD-1的单克隆抗体2D1 (2D1株单克隆抗体) (antibody, V domains shown)
VH: QVQLQQSGDDLVKPGASVKLSCKASGYTFTSYWINWIKQRPGQGLEWIGRIAPGSGSTYYNEMFKGKATLTVDTSSSTAYIQLSSLSSEDSAVYFCARLGQYYAMDYWGQGTTLTVSS
VL: DIVMTQTPLSLPVSLGDQASISCRSSQSLVHSNGNTYLHWYLQKPGQSPKLLIYKVSNRFSGVPDRFSGSGSGTDFTLKISRVEAEDLGVYFCSQSTHVPYTFGGGTKLELKR
notes: Mouse monoclonal antibody from a Balb/c x SP2/0 hybridoma; It was purified from ascites, and hybridoma supernatant was used in flow cytometry; it was detected with anti-mouse IgG; also called 2D1-1
As for B1, the affinity, expressed as Kd, was 0.134 nM; the koff (in general, the first-order rate constant of dissociation) was 2.94e-05 s⁻¹; the kon – broadly, the second-order rate constant of association – came out at 220000 M⁻¹ s⁻¹.
